Consider 15 molecules from patent publication US20240376170A1 (BRIGHT PEAK THERAPEUTICS, published 2024).

Bridges are numbered along the chain shown (N, C = ends). Primed or numbered codes have the meaning given here. [ ]: non-standard residue; d: D form. 8x polyethylene glycol‑amino = O-(8x polyethylene glycol-amino)-tyrosine, SITE 45; 9x polyethylene glycol‑azido = O-(9x polyethylene glycol-azido)-tyrosine, SITE 42; Ygp″ = O-(8x polyethylene glycol-amino)-tyrosine; Yn3″ = O-(9x polyethylene glycol-azido)-tyrosine; hSer = N[C@@H](CCO)C(=O)O; Nle = CCCC[C@H](N)C(=O)O

The chains are these.
B1: CMP-326, Matriptase cleaved molecule (ligand)
chain: APTSSSTKKTQLQLEHLLLDLQEILNGINNYKNPKLTR[Nle]L[hSer][Yn3″]KF[Ygp″][Nle]PKKATELKHLQCLEEELKPLEEVL[hSer]LAQSKNFHLRPRDLISNINVIVLELKGSETTF[hSer]CEYADETATIVEFLNRWITFSQSIISTLT
modifications: not fully specified; ends and bridges not checked; also: Lys9-Glu23 peptide bridge cut by matriptase, fragments left on side chains not given here
B2: CMP-331, MMP2 cleaved molecule (ligand)
chain: APTSSSTKKTQLQLEHLLLDLQKILNGINNYKNPKLTR[Nle]L[hSer]Y(9x polyethylene glycol‑azido)KFY(8x polyethylene glycol‑amino)[Nle]PKKATELKHLQCLEEELKPLEEVL[hSer]LAQSKNFHLRPRDLISNINVIVLELKGSETTF[hSer]CEYADETATIVEFLNRWITFSQSIISTLT
modifications: not fully specified; also: N-terminus (pentanedioic acid-PEG9 linker) and Lys23 side chain attached to another sequence, what remains after MMP2 cleavage is not given here
B3: CMP-331 (ligand)
chain: APTSSSTKKTQLQLEHLLLDLQKILNGINNYKNPKLTR[Nle]L[hSer]Y(9x polyethylene glycol‑azido)KFY(8x polyethylene glycol‑amino)[Nle]PKKATELKHLQCLEEELKPLEEVL[hSer]LAQSKNFHLRPRDLISNINVIVLELKGSETTF[hSer]CEYADETATIVEFLNRWITFSQSIISTLT
modifications: bridge N-23; not fully specified (bridges)
B4: CMP-316, uPa cleaved molecule (ligand)
chain: APTSSSTKKTQLQLEHLLLDLQKILNGINNYKNPKLTR[Nle]L[hSer]Y(9x polyethylene glycol‑azido)KFY(8x polyethylene glycol‑amino)[Nle]PKKATELKHLQCLEEELKPLEEVL[hSer]LAQSKNFHLRPRDLISNINVIVLELKGSETTF[hSer]CEYADETATIVEFLNRWITFSQSIISTLT
modifications: also: uPa cleavage product, not given here as a sequence, Lys23 side-chain attachment remnant unknown
B5: CMP-328, MMP2 cleaved molecule (ligand)
chain: APTSSSTKKTQLQLEHLLLDLQEILNGINNYKNPKLTR[Nle]L[hSer][Yn3″]KF[Ygp″][Nle]PKKATELKHLQCLEEELKPLEEVL[hSer]LAQSKNFHLRPRDLISNINVIVLELKGSETTF[hSer]CEYADETATIVEFLNRWITFSQSIISTLT
modifications: ends and bridges not checked; also: after MMP2 cleavage, remnants of the Lys9–Glu23 peptide linker not given here
B6: CMP-328 (ligand)
chain: APTSSSTKKTQLQLEHLLLDLQEILNGINNYKNPKLTR[Nle]L[hSer][Yn3″]KF[Ygp″][Nle]PKKATELKHLQCLEEELKPLEEVL[hSer]LAQSKNFHLRPRDLISNINVIVLELKGSETTF[hSer]CEYADETATIVEFLNRWITFSQSIISTLT
modifications: bridge 9-23; not fully specified (bridges); ends not checked
B7: CMP-327, MMP2 cleaved molecule (ligand)
chain: APTSSSTKKTQLQLEHLLLDLQEILNGINNYKNPKLTR[Nle]L[hSer][Yn3″]KF[Ygp″][Nle]PKKATELKHLQCLEEELKPLEEVL[hSer]LAQSKNFHLRPRDLISNINVIVLELKGSETTF[hSer]CEYADETATIVEFLNRWITFSQSIISTLT
modifications: ends and bridges not checked; also: Lys9-Glu23 peptide bridge cut by MMP2, fragments left on side chains not given here
B8: CMP-326, uPa cleaved molecule (ligand)
chain: APTSSSTKKTQLQLEHLLLDLQEILNGINNYKNPKLTR[Nle]L[hSer][Yn3″]KF[Ygp″][Nle]PKKATELKHLQCLEEELKPLEEVL[hSer]LAQSKNFHLRPRDLISNINVIVLELKGSETTF[hSer]CEYADETATIVEFLNRWITFSQSIISTLT
modifications: not fully specified; ends and bridges not checked; also: Lys9-Glu23 peptide bridge cut by uPa, fragments left on side chains not given here
B9: CMP-326 (ligand)
chain: APTSSSTKKTQLQLEHLLLDLQEILNGINNYKNPKLTR[Nle]L[hSer][Yn3″]KF[Ygp″][Nle]PKKATELKHLQCLEEELKPLEEVL[hSer]LAQSKNFHLRPRDLISNINVIVLELKGSETTF[hSer]CEYADETATIVEFLNRWITFSQSIISTLT
modifications: bridge 9-23; not fully specified (bridges); ends not checked; also: further groups not given here
B10: CMP-316, MMP2 cleaved molecule (ligand)
chain: APTSSSTKKTQLQLEHLLLDLQKILNGINNYKNPKLTR[Nle]L[hSer]Y(9x polyethylene glycol‑azido)KFY(8x polyethylene glycol‑amino)[Nle]PKKATELKHLQCLEEELKPLEEVL[hSer]LAQSKNFHLRPRDLISNINVIVLELKGSETTF[hSer]CEYADETATIVEFLNRWITFSQSIISTLT
modifications: also: K23 side chain attached to another sequence, m93 after MMP2 cleavage, product not given here as a sequence
B11: CMP-326, MMP2 cleaved molecule (ligand)
chain: APTSSSTKKTQLQLEHLLLDLQEILNGINNYKNPKLTR[Nle]L[hSer][Yn3″]KF[Ygp″][Nle]PKKATELKHLQCLEEELKPLEEVL[hSer]LAQSKNFHLRPRDLISNINVIVLELKGSETTF[hSer]CEYADETATIVEFLNRWITFSQSIISTLT
modifications: not fully specified; ends and bridges not checked; also: Lys9-Glu23 peptide bridge cut by MMP2, fragments left on side chains not given here
B12: CMP-327 (ligand)
chain: APTSSSTKKTQLQLEHLLLDLQEILNGINNYKNPKLTR[Nle]L[hSer][Yn3″]KF[Ygp″][Nle]PKKATELKHLQCLEEELKPLEEVL[hSer]LAQSKNFHLRPRDLISNINVIVLELKGSETTF[hSer]CEYADETATIVEFLNRWITFSQSIISTLT
modifications: bridge 9-23; not fully specified (bridges); ends not checked; also: further groups not given here
B13: CMP-316, Matriptase cleaved molecule (ligand)
chain: APTSSSTKKTQLQLEHLLLDLQKILNGINNYKNPKLTR[Nle]L[hSer]Y(9x polyethylene glycol‑azido)KFY(8x polyethylene glycol‑amino)[Nle]PKKATELKHLQCLEEELKPLEEVL[hSer]LAQSKNFHLRPRDLISNINVIVLELKGSETTF[hSer]CEYADETATIVEFLNRWITFSQSIISTLT
modifications: also: matriptase cleavage product, not given here as a sequence, Lys23 side-chain attachment remnant unknown
B14: CMP-327, Matriptase cleaved molecule (ligand)
chain: APTSSSTKKTQLQLEHLLLDLQEILNGINNYKNPKLTR[Nle]L[hSer][Yn3″]KF[Ygp″][Nle]PKKATELKHLQCLEEELKPLEEVL[hSer]LAQSKNFHLRPRDLISNINVIVLELKGSETTF[hSer]CEYADETATIVEFLNRWITFSQSIISTLT
modifications: ends and bridges not checked; also: Lys9-Glu23 peptide bridge cut by matriptase, fragments left on side chains not given here
B15: CMP-327, uPa cleaved molecule (ligand)
chain: APTSSSTKKTQLQLEHLLLDLQEILNGINNYKNPKLTR[Nle]L[hSer][Yn3″]KF[Ygp″][Nle]PKKATELKHLQCLEEELKPLEEVL[hSer]LAQSKNFHLRPRDLISNINVIVLELKGSETTF[hSer]CEYADETATIVEFLNRWITFSQSIISTLT
modifications: ends and bridges not checked; also: after uPa cleavage, remnants of the Lys9–Glu23 peptide linker not given here

In this test the target is T1, IL-2 receptor βγ complex (human, UniProt P14784 27-551; P31785 23-369).
T1 sequence (looked up) 1: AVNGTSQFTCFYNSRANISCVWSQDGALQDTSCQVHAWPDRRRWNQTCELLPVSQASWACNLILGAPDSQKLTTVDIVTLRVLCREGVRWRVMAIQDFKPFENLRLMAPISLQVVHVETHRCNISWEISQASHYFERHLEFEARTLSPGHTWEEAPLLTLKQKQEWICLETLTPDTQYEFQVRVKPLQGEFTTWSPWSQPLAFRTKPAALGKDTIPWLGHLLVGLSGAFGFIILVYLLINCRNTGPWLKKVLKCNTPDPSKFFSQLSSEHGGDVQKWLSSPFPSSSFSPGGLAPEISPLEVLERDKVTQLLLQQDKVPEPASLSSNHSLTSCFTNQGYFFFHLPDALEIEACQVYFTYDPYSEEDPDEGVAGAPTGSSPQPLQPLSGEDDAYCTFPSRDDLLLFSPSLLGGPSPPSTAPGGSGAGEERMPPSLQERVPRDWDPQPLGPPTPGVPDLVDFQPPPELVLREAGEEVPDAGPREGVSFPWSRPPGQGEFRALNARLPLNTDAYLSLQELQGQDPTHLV
T1 sequence (looked up) 2: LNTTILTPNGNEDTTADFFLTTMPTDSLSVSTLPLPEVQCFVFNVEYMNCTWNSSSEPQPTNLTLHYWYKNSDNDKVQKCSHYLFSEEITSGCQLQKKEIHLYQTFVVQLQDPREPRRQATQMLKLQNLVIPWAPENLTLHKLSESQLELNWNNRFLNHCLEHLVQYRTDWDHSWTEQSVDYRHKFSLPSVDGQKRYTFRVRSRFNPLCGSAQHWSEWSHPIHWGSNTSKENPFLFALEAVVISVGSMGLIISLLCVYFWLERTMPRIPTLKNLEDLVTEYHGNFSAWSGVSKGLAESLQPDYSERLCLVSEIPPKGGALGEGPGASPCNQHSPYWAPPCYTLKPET
Description: cell-based or functional assay.
Consider B1, for which the “Average EC50, pSTAT5 Assay in NK cells” value came to 17.6 nM. As for B2, the figure is 5.09 nM. The result for B3 reads 6.59 nM; that for B4, 0.533 nM. Take B5: the “Average EC50, pSTAT5 Assay in NK cells” value turned out to be 1.48 nM.

Take B6: the “Average EC50, pSTAT5 Assay in NK cells” value worked out at 9.23 nM. B7: the “Average EC50, pSTAT5 Assay in NK cells” value is 0.85 nM. The result for B8 reads 18 nM; that for B9, 15.5 nM. For B10, the “Average EC50, pSTAT5 Assay in NK cells” value was determined as 0.46 nM. The result for B11 reads 16 nM. For B12, the “Average EC50, pSTAT5 Assay in NK cells” value was determined as 16.6 nM.

Regarding B13, the “Average EC50, pSTAT5 Assay in NK cells” value is 0.617 nM. The result for B14 reads 17.3 nM; that for B15, 12.1 nM.
